Measurements from the RNAGym collection of RNA variant scans (doi:10.7554/elife.80360).

B1: HDV Ribozyme (parent)
chain: GGCCGGCAUGGUCCCAGCCUCCUCGCUGGCGCCGGCUGGGCAACAUUCCGAGGGGACCGUCCCCUCGGUAAUGGCGAAUGGGACCCA

Variants of: B1
Experiment: self-cleavage, relative activity (ratio to wild type); higher = more cleavage; co-transcriptional

Row | Variant | self-cleavage
1 | GGCCGGCAAGGUCCCAGCCUCCUCGCUGGCGCCGGCUGGGCAACAUUCCGAGGGGACGGUCCCCUCGGUAAUGGCGAAUGGGACCCA [U9A C58G] | 0.929
2 | GGCCGGCAUGGUCCCAGCCUCCUCGCUGGCGCCGGCUAGGCAACAUUCCGAGGGGACCGUCCCCUCGGUAAUGGCGAAUGCGACCCA [G38A G81C] | 0.0712
3 | GGCCGGCAUGGUCCCAGCCUCCUCGCUGGCGCCGGAUGGGCAACAUUCCGAGGGGACCGUCCCCUCGGUAAUGGCGAAUGGGUCCCA [C36A A83U] | 0.0219
4 | GGCCGGCAUGGUCCCAGCCUCCUCGCUGGCCCCGGCUGGGCAACAUUCCGAGGGGACCGUCCCUUCGGUAAUGGCGAAUGGGACCCA [G31C C64U] | 0.324
5 | GGCCGGCAUGGUCCCACCCUCCUCGCUGGCGCCGGCUGGGCAACAUUCCGAGGGGACCGUCCCCUCGGUGAUGGCGAAUGGGACCCA [G17C A70G] | 0.346
6 | GGCCGGCAUGGUCCCAGCCUCCUCGCUGGCGCCGGCUGGGCAACAUUUCGAGGGGACCGUCCCCUCGAUAAUGGCGAAUGGGACCCA [C48U G68A] | 0.885
7 | GGCCCGCAUGGUCCCAGCCUCCUCGCUGGCGCCGGCUGGGCAACAUUCCGAGGGGACCCUCCCCUCGGUAAUGGCGAAUGGGACCCA [G5C G59C] | 0.0791
8 | GGCCGGCAUGGUCCCAGCCUCCUCGCGGGCGCCGGCUGGGCAACAUUCCGAGGGGACCGCCCCCUCGGUAAUGGCGAAUGGGACCCA [U27G U60C] | 0.804
9 | GGCCGGCAUGGUCCCAGCCUCCUCGCUGGCGCCGACUUGGCAACAUUCCGAGGGGACCGUCCCCUCGGUAAUGGCGAAUGGGACCCA [G35A G38U] | 0.145
10 | GGCCGGCAGGGUCCCAGCCUCCUCGCUGGCGCCGGCUGGGCAACAUCCCGAGGGGACCGUCCCCUCGGUAAUGGCGAAUGGGACCCA [U9G U47C] | 1.04
11 | GGCCGGCAUGGUCCCAGCCUCCUCGCAGGCGCCGGCUGGGCAACACUCCGAGGGGACCGUCCCCUCGGUAAUGGCGAAUGGGACCCA [U27A U46C] | 0.733
12 | GGCCGGCAUGGUCCCAACCUCCUUGCUGGCGCCGGCUGGGCAACAUUCCGAGGGGACCGUCCCCUCGGUAAUGGCGAAUGGGACCCA [G17A C24U] | 0.26
13 | GGCCCGCAUGGUCCCAGCCUCCUCGCUGGCGCCGGCUGCGCAACAUUCCGAGGGGACCGUCCCCUCGGUAAUGGCGAAUGGGACCCA [G5C G39C] | 0.0462
14 | GGCCGGCAUGGUCCCAGCCUCCUCGCUGGCGCCGGCUGGGCGACAUUCCGAGGGGACCGUCCCCUCGGUAAGGGCGAAUGGGACCCA [A42G U72G] | 0.35
15 | GGCCGGAAUGGUCCCAGCCUCCUCGCUGGCGCCGGCUGGGCAACAUUCCGACGGGACCGUCCCCUCGGUAAUGGCGAAUGGGACCCA [C7A G52C] | 0.482
16 | GGCCGGCAUGAUCCCAGCCUCCUCGCUGGCGCCGGCUGGGCAACAUUCCGAGGGGACCUUCCCCUCGGUAAUGGCGAAUGGGACCCA [G11A G59U] | 0.408

Row | Variant | self-cleavage
17 | GGCCGGCAUGGUCCCAGCCUCCUCGCUGGCGCCGGCUGGGCAACAUUCCGAGCGGACCGUCCCCUCGGUAAUGGCGAAUGAGACCCA [G53C G81A] | 0.369
18 | GGCCGGCAUGGUCCCAGCCUCCUCGCUGGCGCCGGCUGGGCAACAUUCCGGGGUGACCGUCCCCUCGGUAAUGGCGAAUGGGACCCA [A51G G54U] | 1.07
19 | GGCCGGCAUGGUCCCAGCCUCCUCGCUGGCGCCGGCUGGGCAGCAUUCCGAGGGGGCCGUCCCCUCGGUAAUGGCGAAUGGGACCCA [A43G A56G] | 0.26
20 | GGCCGGCAUGGUCCCAGCCUCCUCGCAGGCGCCGUCUGGGCAACAUUCCGAGGGGACCGUCCCCUCGGUAAUGGCGAAUGGGACCCA [U27A G35U] | 0.201
21 | GGCCGGCAUGGUCCCAGCCUCCUCGCUGGUGCCGGCUGGGCAACAUUCCGAGGGGACCGUCCCCUCGGUAAUGGCGAAUGCGACCCA [C30U G81C] | 0.148
22 | GGCCGGCAUGGUCCCAGCCUCCUCGCUGGCGCCGGCUGGGCAACAUUUCGAGGGGACCGUCCCGUCGGUAAUGGCGAAUGGGACCCA [C48U C64G] | 0.721
23 | GGCCGGAAUGGUCCCAGCCUCCUCGCUGGCGCCGGCUGGGCAACAUUCCGAGGGGCCCGUCCCCUCGGUAAUGGCGAAUGGGACCCA [C7A A56C] | 0.831
24 | GGCCGGCAUGGUCCCAGCCUCCUCGCUGUCGCCGGCUGGGCAACAUUCCGAGGGGACCGUCCCCUCGGUAAUGGCUAAUGGGACCCA [G29U G76U] | 0.137
25 | GGCCGGCAUGGUCCUAGCCUCCUCGCUGGCACCGGCUGGGCAACAUUCCGAGGGGACCGUCCCCUCGGUAAUGGCGAAUGGGACCCA [C15U G31A] | 0.302
26 | GGCCGGCAUGGUCCCAGCCUCCUCGCUGCCGCCGGCUGGGCAACAUUCCGAGGGGACCGUCCCCUCGGUAAUGGCGAAUGGGACCAA [G29C C86A] | 0.0519
27 | GGCCGGCUUGGUCCCAGCCUCCUCGCUGGCGCCGGCUGGGCAACAUUCCGAGGGGACCGUCCCCUCGGUAAUGGCGAAUGGGACCAA [A8U C86A] | 0.997
28 | GGCCGGCAUGGUCCCAGCCUCCUCGUUGGCGACGGCUGGGCAACAUUCCGAGGGGACCGUCCCCUCGGUAAUGGCGAAUGGGACCCA [C26U C32A] | 0.256
29 | GGCCGGCAUGGGCCCAGCCUCCUCGCUGGCGCCGGCUGGGCAACAUUCCGAGGGGACCGUCCCCUCUGUAAUGGCGAAUGGGACCCA [U12G G67U] | 0.731
30 | GGCCGGCAUGGUCCCAGCCUCCUCGCUGGCGCCGGCUGGGAAACAUUCCGAGGGGAGCGUCCCCUCGGUAAUGGCGAAUGGGACCCA [C41A C57G] | 1.04
31 | GGCCGGCAUGGUCCCAGCCUCCUCGCUGGCGCCGGCUGGGCAACAUUCCCAGGGGACCGUCCCCUCGGUACUGGCGAAUGGGACCCA [G50C A71C] | 0.252
32 | GGCCGGCAUGGUCCCAGCCUCCUCGCUGGCGCCGGCUGGGCAACAGUCCGAGGGGAUCGUCCCCUCGGUAAUGGCGAAUGGGACCCA [U46G C57U] | 0.86
